Reference: paper PMC5241874

B1: αγ heterodimer of human NAD-IDH (IDH3) (Homo sapiens) (protein)
chain 1: TGGVQTVTLIPGDGIGPEISAAVMKIFDAAKAPIQWEERNVTAIQGPGGKWMIPSEAKESMDKNKMGLKGPLKTPIAAGHPSMNLLLRKTFDLYANVRPCVSIEGYKTPYTDVNIVTIRENTEGEYSGIEHVIVDGVVQSIKLITEGASKRIAEFAFEYARNNHRSNVTAVHKANIMRMSDGLFLQKCREVAESCKDIKFNEMYLDTVCLNMVQDPSQFDVLVMPNLYGDILSDLCAGLIGGLGVTPSGNIGANGVAIFESVHGTAPDIAGKDMANPTALLLSAVMMLRHMGLFDHAARIEAACFATIKDGKSLTKDLGGNAKCSDFTEEICRRVKDLD
chain 2: FSEQTIPPSAKYGGRHTVTMIPGDGIGPELMLHVKSVFRHACVPVDFEEVHVSSNADEEDIRNAIMAIRRNRVALKGNIETNHNLPPSHKSRNNILRTSLDLYANVIHCKSLPGVVTRHKDIDILIVRENTEGEYSSLEHESVAGVVESLKIITKAKSLRIAEYAFKLAQESGRKKVTAVHKANIMKLGDGLFLQCCREVAARYPQITFENMIVDNTTMQLVSRPQQFDVMVMPNLYGNIVNNVCAGLVGGPGLVAGANYGHVYAVFETATRNTGKSIANKNIANPTATLLASCMMLDHLKLHSYATSIRKAVLASMDNENMHTPDIGGQGTTSEAIQDVIRHIRVINGRAVEA
notes: alpha and gamma co-expressed in E. coli BL21(DE3) from pQlinkN; gamma C-terminal TEV-His6, His6 cleaved by TEV; 80 kDa heterodimer (dimer of heterodimers at high concentration)
B2: αγ heterodimer of human NAD-IDH (IDH3) (Homo sapiens; P50213:N202A) (protein)
chain 1: TGGVQTVTLIPGDGIGPEISAAVMKIFDAAKAPIQWEERNVTAIQGPGGKWMIPSEAKESMDKNKMGLKGPLKTPIAAGHPSMNLLLRKTFDLYANVRPCVSIEGYKTPYTDVNIVTIRENTEGEYSGIEHVIVDGVVQSIKLITEGASKRIAEFAFEYARNNHRSNVTAVHKAAIMRMSDGLFLQKCREVAESCKDIKFNEMYLDTVCLNMVQDPSQFDVLVMPNLYGDILSDLCAGLIGGLGVTPSGNIGANGVAIFESVHGTAPDIAGKDMANPTALLLSAVMMLRHMGLFDHAARIEAACFATIKDGKSLTKDLGGNAKCSDFTEEICRRVKDLD
chain 2: FSEQTIPPSAKYGGRHTVTMIPGDGIGPELMLHVKSVFRHACVPVDFEEVHVSSNADEEDIRNAIMAIRRNRVALKGNIETNHNLPPSHKSRNNILRTSLDLYANVIHCKSLPGVVTRHKDIDILIVRENTEGEYSSLEHESVAGVVESLKIITKAKSLRIAEYAFKLAQESGRKKVTAVHKANIMKLGDGLFLQCCREVAARYPQITFENMIVDNTTMQLVSRPQQFDVMVMPNLYGNIVNNVCAGLVGGPGLVAGANYGHVYAVFETATRNTGKSIANKNIANPTATLLASCMMLDHLKLHSYATSIRKAVLASMDNENMHTPDIGGQGTTSEAIQDVIRHIRVINGRAVEA
notes: as for B1
B3: αγ heterodimer of human NAD-IDH (IDH3) (Homo sapiens; P50213:K200A) (protein)
chain 1: TGGVQTVTLIPGDGIGPEISAAVMKIFDAAKAPIQWEERNVTAIQGPGGKWMIPSEAKESMDKNKMGLKGPLKTPIAAGHPSMNLLLRKTFDLYANVRPCVSIEGYKTPYTDVNIVTIRENTEGEYSGIEHVIVDGVVQSIKLITEGASKRIAEFAFEYARNNHRSNVTAVHAANIMRMSDGLFLQKCREVAESCKDIKFNEMYLDTVCLNMVQDPSQFDVLVMPNLYGDILSDLCAGLIGGLGVTPSGNIGANGVAIFESVHGTAPDIAGKDMANPTALLLSAVMMLRHMGLFDHAARIEAACFATIKDGKSLTKDLGGNAKCSDFTEEICRRVKDLD
chain 2: FSEQTIPPSAKYGGRHTVTMIPGDGIGPELMLHVKSVFRHACVPVDFEEVHVSSNADEEDIRNAIMAIRRNRVALKGNIETNHNLPPSHKSRNNILRTSLDLYANVIHCKSLPGVVTRHKDIDILIVRENTEGEYSSLEHESVAGVVESLKIITKAKSLRIAEYAFKLAQESGRKKVTAVHKANIMKLGDGLFLQCCREVAARYPQITFENMIVDNTTMQLVSRPQQFDVMVMPNLYGNIVNNVCAGLVGGPGLVAGANYGHVYAVFETATRNTGKSIANKNIANPTATLLASCMMLDHLKLHSYATSIRKAVLASMDNENMHTPDIGGQGTTSEAIQDVIRHIRVINGRAVEA
notes: as for B1

Substrate: O=C(O)CC(C(=O)O)C(O)C(=O)O
Assay: purified protein
Assay type: biochemical, Homo sapiens
Conditions: no activators, 2 mM Mn2+, 3.2 mM NAD, 33 mM Tris-acetate pH 7.4, 25 °C, Hill 2.0, racemic DL-ICT varied

| Protein | K0.5 [mM] | kcat/Km [M⁻¹ s⁻¹] | K0.5 (Hill 1.2) [mM] | kcat/Km (Hill 1.2) [M⁻¹ s⁻¹] |
| --- | --- | --- | --- | --- |
| B1 | 4.49 ± 0.15 | 2160 ± 30 |  |  |
| B2 |  |  | 5.80 ± 0.84 | 290 ± 10 |
| B3 |  |  | 6.38 ± 1.27 | 380 ± 30 |
